Measured values reported in paper PMC3600089 (ACS chemical biology, 2012).

B2: GST-TACC3-CT E629A (domain or fragment)
chain: not shown

Assays:
[1] = biological target: T1, His-ARNT PAS-B (human ARNT residues 356-470) (human, UniProt P27540 356-470); experiment: pull-down
[2] = biological target: His-ARNT2 PAS-B (human ARNT2 residues 330-444) (human, UniProt Q9HBZ2 330-444); experiment: pull-down
ARNT2 PAS-B E372A = ARNT2 PAS-B E372A (human, UniProt Q9HBZ2 330-444, E372A); experiment: pull-down
ARNT2 PAS-B K391A = ARNT2 PAS-B K391A (human, UniProt Q9HBZ2 330-444, K391A); experiment: pull-down
[3] = biological target: T1, His-ARNT PAS-B (human ARNT residues …); experiment: AlphaScreen or HTRF
GST-TACC3-CT E629A = biological target: B2; experiment: AlphaScreen or HTRF

B1: GST-TACC3-CT (murine TACC3 residues 561-631) (domain or fragment)
chain: not shown
Q: Does B1 bind [1]?
A: binds

Q: Does B1 bind [2]?
A: binds

Q: Does B1 bind (ARNT2 PAS-B E372A)?
A: binds

Q: Does B1 bind (ARNT2 PAS-B K391A)?
A: binds

Q: Does B2 bind [3]?
A: binds

B3: untagged ARNT PAS-B (domain or fragment)
chain: not shown
Q: How did the IC50 (GST-TACC3-CT E629A) turn out when B3 was run?
A: 2000 to 3000 nM
